This note sets out measurements from patent US20260217779.

For series [1], the target named is T1, hCXCL11.0023-G1T4k.one//VHn-G1T4h.one.H435R.
T1 chain 1: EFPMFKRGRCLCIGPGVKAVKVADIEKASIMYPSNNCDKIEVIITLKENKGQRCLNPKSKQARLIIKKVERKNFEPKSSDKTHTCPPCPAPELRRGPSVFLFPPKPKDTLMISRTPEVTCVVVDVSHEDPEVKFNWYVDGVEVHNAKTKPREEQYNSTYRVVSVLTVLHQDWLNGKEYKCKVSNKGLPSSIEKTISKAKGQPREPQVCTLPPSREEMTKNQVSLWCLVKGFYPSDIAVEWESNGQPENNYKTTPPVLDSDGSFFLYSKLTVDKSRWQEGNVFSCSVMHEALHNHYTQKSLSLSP
T1 chain 2: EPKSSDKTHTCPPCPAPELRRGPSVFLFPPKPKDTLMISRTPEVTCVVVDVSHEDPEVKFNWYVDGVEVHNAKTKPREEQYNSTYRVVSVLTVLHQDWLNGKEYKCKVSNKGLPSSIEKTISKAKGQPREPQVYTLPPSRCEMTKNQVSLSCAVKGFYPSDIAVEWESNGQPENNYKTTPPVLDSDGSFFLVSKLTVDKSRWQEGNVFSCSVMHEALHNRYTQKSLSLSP

Series [2] has as its target T2, hCXCL11.0037-G1T4k.one//VHn-G1T4h.one.H435R.
T2 chain 1: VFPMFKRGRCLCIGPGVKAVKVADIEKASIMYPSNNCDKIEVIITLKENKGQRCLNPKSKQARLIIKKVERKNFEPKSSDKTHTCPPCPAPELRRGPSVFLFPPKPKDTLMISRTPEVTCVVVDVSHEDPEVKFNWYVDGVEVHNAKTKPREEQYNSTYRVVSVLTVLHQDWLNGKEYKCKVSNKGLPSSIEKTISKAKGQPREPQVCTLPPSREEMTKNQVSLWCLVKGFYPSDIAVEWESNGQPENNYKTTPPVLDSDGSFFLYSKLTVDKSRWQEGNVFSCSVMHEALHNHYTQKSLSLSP
T2 chain 2: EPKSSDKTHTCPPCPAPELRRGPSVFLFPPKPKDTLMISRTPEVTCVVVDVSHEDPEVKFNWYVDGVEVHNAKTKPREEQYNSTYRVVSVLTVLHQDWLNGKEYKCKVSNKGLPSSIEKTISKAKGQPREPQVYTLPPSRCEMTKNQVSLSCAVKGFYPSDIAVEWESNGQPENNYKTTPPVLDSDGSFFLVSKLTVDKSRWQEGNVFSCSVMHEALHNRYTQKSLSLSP

Series [3] addresses T3, hCXCL11.0033-G1T4k.one//VHn-G1T4h.one.H435R.
T3 chain 1: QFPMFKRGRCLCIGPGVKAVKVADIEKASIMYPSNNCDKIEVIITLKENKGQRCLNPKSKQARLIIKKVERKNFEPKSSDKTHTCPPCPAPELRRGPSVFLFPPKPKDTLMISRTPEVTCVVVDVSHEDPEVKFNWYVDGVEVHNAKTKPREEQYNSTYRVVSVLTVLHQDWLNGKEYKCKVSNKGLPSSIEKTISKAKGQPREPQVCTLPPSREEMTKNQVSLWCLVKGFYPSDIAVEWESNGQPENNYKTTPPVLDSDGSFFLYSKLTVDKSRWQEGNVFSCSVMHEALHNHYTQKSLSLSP
T3 chain 2: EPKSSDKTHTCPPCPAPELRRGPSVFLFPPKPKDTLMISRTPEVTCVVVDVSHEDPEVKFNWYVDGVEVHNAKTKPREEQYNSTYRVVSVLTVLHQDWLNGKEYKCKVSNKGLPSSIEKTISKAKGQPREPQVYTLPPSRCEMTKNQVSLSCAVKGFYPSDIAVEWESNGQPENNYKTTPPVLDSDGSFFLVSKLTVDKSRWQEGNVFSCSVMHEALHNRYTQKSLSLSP

Series [4] deals with T4, hCXCL11.0039-G1T4k.one//VHn-G1T4h.one.H435R.
T4 chain 1: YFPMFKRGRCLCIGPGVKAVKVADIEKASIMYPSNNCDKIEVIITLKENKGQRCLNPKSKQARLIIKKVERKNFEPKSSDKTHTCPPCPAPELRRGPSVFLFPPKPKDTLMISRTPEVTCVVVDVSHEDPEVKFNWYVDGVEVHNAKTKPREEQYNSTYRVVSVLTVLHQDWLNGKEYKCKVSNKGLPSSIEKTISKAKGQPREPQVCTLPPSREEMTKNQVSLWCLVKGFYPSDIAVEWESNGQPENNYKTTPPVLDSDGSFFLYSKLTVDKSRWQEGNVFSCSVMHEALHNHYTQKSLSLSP
T4 chain 2: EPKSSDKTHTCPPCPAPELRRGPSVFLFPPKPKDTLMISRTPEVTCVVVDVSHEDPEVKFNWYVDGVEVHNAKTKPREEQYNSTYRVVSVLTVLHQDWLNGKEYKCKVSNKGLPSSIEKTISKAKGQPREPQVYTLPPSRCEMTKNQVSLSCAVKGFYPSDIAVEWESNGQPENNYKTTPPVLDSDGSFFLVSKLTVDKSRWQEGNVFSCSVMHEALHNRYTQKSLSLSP

The target of series [5] is T5, hITIP0022-G1T4k.one//VHn-G1T4h.one.H435R.
T5 chain 1: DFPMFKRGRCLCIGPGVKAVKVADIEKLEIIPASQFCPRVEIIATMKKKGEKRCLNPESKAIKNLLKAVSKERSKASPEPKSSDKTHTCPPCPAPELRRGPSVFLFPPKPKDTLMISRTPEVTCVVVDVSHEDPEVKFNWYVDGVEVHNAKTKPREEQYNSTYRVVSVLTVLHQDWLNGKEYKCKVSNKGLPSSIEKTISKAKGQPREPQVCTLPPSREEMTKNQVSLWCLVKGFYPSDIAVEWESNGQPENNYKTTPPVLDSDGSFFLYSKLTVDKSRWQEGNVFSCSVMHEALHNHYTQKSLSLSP
T5 chain 2: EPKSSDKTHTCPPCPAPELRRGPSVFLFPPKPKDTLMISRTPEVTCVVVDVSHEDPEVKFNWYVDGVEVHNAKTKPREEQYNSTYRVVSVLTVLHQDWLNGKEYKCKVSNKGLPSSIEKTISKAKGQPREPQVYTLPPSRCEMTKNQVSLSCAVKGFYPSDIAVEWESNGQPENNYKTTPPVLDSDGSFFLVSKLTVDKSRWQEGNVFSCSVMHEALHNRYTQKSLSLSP

Series [6] concerns the target T6, hITIP0030-G1T4k.one//VHn-G1T4h.one.H435R.
T6 chain 1: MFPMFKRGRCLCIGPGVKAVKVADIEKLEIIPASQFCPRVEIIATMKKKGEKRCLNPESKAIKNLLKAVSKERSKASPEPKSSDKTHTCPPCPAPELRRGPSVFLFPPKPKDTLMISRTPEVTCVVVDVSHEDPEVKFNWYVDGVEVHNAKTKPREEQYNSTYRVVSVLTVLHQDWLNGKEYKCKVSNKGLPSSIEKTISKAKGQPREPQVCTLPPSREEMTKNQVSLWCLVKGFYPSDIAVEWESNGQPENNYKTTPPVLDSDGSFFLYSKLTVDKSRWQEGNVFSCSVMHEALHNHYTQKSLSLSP
T6 chain 2: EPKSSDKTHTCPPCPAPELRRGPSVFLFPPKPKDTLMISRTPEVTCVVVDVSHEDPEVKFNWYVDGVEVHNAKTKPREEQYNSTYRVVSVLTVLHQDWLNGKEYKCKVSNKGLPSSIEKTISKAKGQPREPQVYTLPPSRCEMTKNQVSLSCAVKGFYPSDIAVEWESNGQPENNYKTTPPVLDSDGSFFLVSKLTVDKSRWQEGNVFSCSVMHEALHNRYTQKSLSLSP

In series [7] the target is T7, hITIP0031-G1T4k.one//VHn-G1T4h.one.H435R.
T7 chain 1: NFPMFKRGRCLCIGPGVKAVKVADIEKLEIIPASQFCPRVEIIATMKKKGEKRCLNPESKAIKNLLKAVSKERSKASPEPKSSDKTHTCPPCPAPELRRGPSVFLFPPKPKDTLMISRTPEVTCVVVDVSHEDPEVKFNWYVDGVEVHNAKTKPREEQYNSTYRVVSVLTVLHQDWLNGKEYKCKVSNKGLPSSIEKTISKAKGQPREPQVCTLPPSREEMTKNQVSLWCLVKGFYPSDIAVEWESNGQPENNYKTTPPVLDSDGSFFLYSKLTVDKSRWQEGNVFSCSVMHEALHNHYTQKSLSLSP
T7 chain 2: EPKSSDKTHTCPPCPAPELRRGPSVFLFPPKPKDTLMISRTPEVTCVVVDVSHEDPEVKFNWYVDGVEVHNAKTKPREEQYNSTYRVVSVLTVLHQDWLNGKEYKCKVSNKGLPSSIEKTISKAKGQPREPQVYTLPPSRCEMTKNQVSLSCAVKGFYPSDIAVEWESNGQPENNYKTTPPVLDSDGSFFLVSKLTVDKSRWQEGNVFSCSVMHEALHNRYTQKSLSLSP

B1: human dipeptidyl peptidase IV (human DPPIV, hDPPIV) (Biolegend, 764102) (protein)
chain: NKGTDDATADSRKTYTLTDYLKNTYRLKLYSLRWISDHEYLYKQENNILVFNAEYGNSSVFLENSTFDEFGHSINDYSISPDGQFILLEYNYVKQWRHSYTASYDIYDLNKRQLITEERIPNNTQWVTWSPVGHKLAYVWNNDIYVKIEPNLPSYRITWTGKEDIIYNGITDWVYEEEVFSAYSALWWSPNGTFLAYAQFNDTEVPLIEYSFYSDESLQYPKTVRVPYPKAGAVNPTVKFFVVNTDSLSSVTNATSIQITAPASMLIGDHYLCDVTWATQERISLQWLRRIQNYSVMDICDYDESSGRWNCLVARQHIEMSTTGWVGRFRPSEPHFTLDGNSFYKIISNEEGYRHICYFQIDKKDCTFITKGTWEVIGIEALTSDYLYYISNEYKGMPGGRNLYKIQLSDYTKVTCLSCELNPERCQYYSVSFSKEAKYYQLRCSGPGLPLYTLHSSVNDKGLRVLEDNSALDKMLQNVQMPSKKLDFIILNETKFWYQMILPPHFDKSKKYPLLLDVYAGPCSQKADTVFRLNWATYLASTENIIVASFDGRGSGYQGDKIMHAINRRLGTFEVEDQIEAARQFSKMGFVDNKRIAIWGWSYGGYVTSMVLGSGSGVFKCGIAVAPVSRWEYYDSVYTERYMGLPTPEDNLDHYRNSTVMSRAENFKQVEYLLIHGTADDNVHFQQSAQISKALVDVGVDFQAMWYTDEDHGIASSTAHQHIYTHMSHFIKQCFSLP
For B1, the “cleavage by hDPPIV (LC/MS mass)” value in series [1], in series [2], in series [3], in series [4], in series [5] and in series [6] was “showed no mass change suggestive of peptide bond cleavage by hDPPIV treatment” in each case. The “cleavage by hDPPIV (LC/MS mass)” value in series [7] is on record as “showed no mass change suggestive of peptide bond cleavage by hDPPIV treatment”.
